Assay results as given in the DeepSol protein solubility set.

assay: soluble on expression in E. coli; label from the status in PepcDB or PDB records

| Sequence | soluble on expression in E. coli |
| --- | --- |
| MKLPKEGDFITIQSYKHDGRLHRTWRDTMVLKTTENAVIGVNDHTLVTEADGRRWVTREPAIVYFHKKYWFNIIAMIRDNGISYYCNLASPYVLDQEALKYIDYDLDVKVFADGEKKLLDVDEYEIHKKEMHYSPDIDYILKEHVKILVDWINNGKGPFSQSYVNIWYKRYLELRNR | not soluble |
| MKLSTAFLTFSAVFLYGSAQQLLYLNSFKGMRVNNDMYEWCNIYISAQSDDTSFLASVYIVTAKNSKSLLNIMQDNLQNTGEIQGYPVDPPAYLTTSLSDNEMKQLNGVIYLSSAGQRVDSTFHVYDIYQARKMNIIANGYSTFLFLNSNMQTKPSRSSIISDWNQIKGSSGLLYAGFPLDSKVNVYPIFSNPITIQNSEVLFPNVETFSLSLAAFYITTNNGFSFKIKPGYYNINGTNTTSVYSTTGFYMKPAGEDDSTIVVNIENDIRCSGTSGASVVGHFPTGGNVTVGFYNGMAKYEQSAPPEDYPSYNPWTIPFIGQHFKVSSTNGTAGQYYVQYFVNQRPPRQTTPPETTTKSAGAVKLFTSVVTLLMYWL | not soluble |
| MKLTKGKVLLAGCMAMAMSHSVLAQDIKVAIVGAMSGPVAQYGDMQFTGARQAIADINASGGIKGDKLVGVEYDDACDPKQAVAVANKVINDGIRYVIGHLCSSSTQPASDIYEDEGVIMITPAATNADLTTRGYKMIMRTTGLDSDQGPTAAKYIVETIKPKRIAVVHDKQQYGEGLARSVRDSLKEQGAEVVLFEGVTAGDKDFSTLVARLKKENVDFVYFGGYYPEMGQILRQAKQAGLTARFMGPEGVGNSSLSNIAGEASEGMLVTLPKRYDQVPANQPIVDALKAKKLDPTGPFVWTTYAALQSLTTAMERTGSKEPADLANDLKTGKPVETVMGPLSWDDKGDLKGFEFGIFEWHADGSSTAVK | not soluble |
| MKMKLTAAIIAAFVIIMGCAGGPKASKADELDLAIRDTSDYLNDNIPKGNKIIILNIQSDYASLSDYIIDELIANAVNDKIFKVVDRAQLEQIRAELNFQWSGEVDDKSALEIGKFLGAQTIVSGAISELGDRYRMRLRALNVQTSQVQGQYNRNIAAGKTIAALMKGGKSANTVYGGRTASGNANDTTAANQTPSRQPATPSSPQGSTKPVTTTYKIGDTGPAGGLIFYDKGNNIGGWRYLEAAPSDLGPNKFITEDPGSLPKNLYDLWEKTDGDKGRGVGKGKYNTEFLMGIAQARGGFNWAIRLCDEYELNGYNDWFMPSRDELNFMYGNLHMKGLGNFRLEQYWSSTGWQDTWGSYSAWYINFEDGTAAYQNASQPRRFRPIRQF | not soluble |
| MKMKSLFVAMITFFSAAPFAHWQPIGNAEYTWGPFHVYTIGLFSETGTYQENERPLMLSFKYEKPIEGKNFAITLIKEIETLKLNDGDTQSWLKEMQATFPDFSPNDILNYIALPDRGYFVLNDTVLEHDFDAKFNQAFIGIWLAPNSTFVKLQPQLLGKTKSNHEATEFYLKPEIESFDEQDSTPELPPNYLLDSQKKSQG | not soluble |
| MKNADKNFEKEKYIDSLRDYLAVLDKVDDESLKAEICYKVSQIYHYLQKDDPQNALKYAQMSMDLHAKHGEDDLTVLDLINIASILMDSGDKKGALQKLDEAIQKAKDMGDDEIQLIAMSSKASMIAEDNREEALKLYQEVMRKSQEIGDIEDYFDAVQGIVNMVREEDEHRAFEMIMKAIEELENYISGIKSKKEKKDVADSFSYLYDTASDIAMSIGDVDQAMEIAKRLQKIVS | not soluble |
| MKNFLLLTLILLTACNNSEENTQSIIKNDINKTIIDEEYVNLEPINQSNISFTKHSWVQTCGTQQLLTEQNKESISLSVVAPRLDDDEKYCFDFNGVSNKGEKYITKVTLNVVAPSLEVYVDHASLPTLQQLMDIIKSEEENPTAQRYIAWGRIVPTDEQMKELNITSFALINNHTPADLVQEIVKQAQTKHRLNVKLSSNTAHSFDNLVPILKELNSFNNVTVTNIDLYDDGSAEYVNLYNWRDTLNKTDNLKIGKDYLEDVINGINEDTSNTGTSSVYNWQKLYPANYHFLRKDYLTLEPSLHELRDYIGDSLKQMQWDGFKKFNSKQQELFLSIVNFDKQKLQNEYNSSNLPNFVFTGTTVWAGNHEREYYAKQQINVINNAINESSPHYLGNSYDLFFKGHPGGGIINTLIMQNYPSMVDIPSKISFEVLMMTDMLPDAVAGIASSLYFTIPAEKIKFIVFTSTETITDRETALRSPLVQVMIKLGIVKEENVLFWADLPNCETGVCIAV | soluble |
| MKNILVFLMLGVMLSALQELRYPSGYRVNGSRVFYTYIELTEIDMTTFEILNERYAKDKNAVYYEGKVIVNVDPEDFELLGDFFGKTKNNIYIGNTIIKDADINSFELLGHSRSRDKNHVFFADKILKNADPATYIVFNNKYAKDKNHVYFWDKEIENADAPTFEVLNGEYGKDKNRVYYNSRVVRKADPATFRILEGPFSKDKNYVYVTGEIFEKADVKTFQTLGDYGYAKDKRYVYRYNKILEGEKPADFLPPPQPVIMY | not soluble |
| MKNKADNKKRNFLTHSEIESLLKAANTGPHAARNYCLTLLCFIHGFRASEICRLRISDIDLKAKCIYIHRLKKGFSTTHPLLNKEVQALKNWLSIRTSYPHAESEWVFLSRKGNPLSRQQFYHIISTSGGNAGLSLEIHPHMLRHSCGFALANMGIDTRLIQDYLGHRNIRHTVWYTASNAGRFYGIWDRARGRQRHAVL | soluble |
| MKNKGLLLKVSTGLAAVSFLFSEYLFKISFKRVDHVPETSQEKQKYAASYWEYVDWFRRINKEHWTFQTKNETERMSAYFIPSKEENSKKVVIIAHGYKGNGETMSSYAKMFYEMGFNVLLPDDRGHGQSMGEYISFGWLDRLDYLQWLKKIIKRVGPKSEILLFGVSMGASTVEMLSGEDLPSQVKCVIADCGYSSIDEEMTFLLKHHYHLPKYPFYPLVSTINRYRLGYYLGDVSSVEQLKKNKLPIFFIHGENDDYVPSYMSLENYEATTAAKELWIVNNATHAESYWLDPLEYKKRIKDFLNKYFNDKN | not soluble |
| MKNKTKNATLKSIIDVILYENPSTQDEIAERLGITRRYVTKLLQPLIREGVVRRAYIVDIKKFDEFPELFGEEVTSREYAGSFFIKEILRDMAQHVCKQLNKSFRSLEEYDEDLANEALKMDYITNTMHEKVRSSVDTAIAMNPYSEFSKTMAFTEIAYDLERIGDHSAIIANFAIKESYEVDPAMMEYLRDMFSIAVEMVKTAMDAFLNEKLELKATLMSLEDDIHRIQKNALNCVATQMAETPFEDKERSTYYISLSRVVKTLERIADISIEIFDTAGEYYRNIPRTTTPERFRRREREES | soluble |
| MKPATLTAELDVRSGGRYRISFVSDDGEYFEAGGTYREVVPNELLVFTWAWHSTPERESLVTISFKPDSAGTLMIFHHAQFFDEAARDNHRRGWSSFLDKLDAFVALEHHHHHH | not soluble |
| MKPDIYALLERALLSGDPDEKGRLTDEAFAAVQNMDGAETNTPPLDFPRAGRPDKPVLVAPSQLTPRKMNTTEGYAAMLHAIAHIEFNAVNLALDAAYRFRTLPFQFVRDWVKVAKEEVYHFRLMRERLRAFGFDYGDFEAHNHLWDMAYKTAYDPLLRMALVPRVLEARGLDVTPGIRAKVAQRGDSETCGVLDIIYRDEVGHVAIGNRWYQHLCRERGLEPIALFRSLIARYDMFIFRGYVNIEAREKAGFSRFELDMLEDFEQSLKQNKNTVMGHHHHHHSH | soluble |
| MKPNITWGLQKIQAHGIADNTIYATEGTQIIFTVTSPWIPVFKVNDDVKIALTLTRHEEAWWIINQSTEYCCTVNDQIVEPHHRMRLNEGDLIEWGLSS | not soluble |
| MKPSVILYKALPDDLLQRLQEHFTVHQVANLSPQTVEQNAAIFAEAEGLLGSNENVNAALLEKMPKLRATSTISVGYDNFDVDALTARKILLMHTPTVLTETVADTLMALVLSTARRVVEVAERVKAGEWTASIGPDWYGTDVHHKTLGIVGMGRIGMALAQRAHFGFNMPILYNARRHHKEAEERFNARYCDLDTLLQESDFVCLILPLTDETHHLFGAEQFAKMKSSAIFINAGRGPVVDENALIAALQKGEIHAAGLDVFEQEPLSVDSPLLSMANVVAVPHIGSATHETRYGMAACAVDNLIDALQGKVEKNCVNPHVAD | soluble |
| MKPVYLAMNYFGPHEHSIIDFSKLESTPIFLISGDTGAGKSTIFDAMTFALFGSTTNDGTDGRAAKEMRSQFAPADQPTSVTFYFEQGNQLYKIARSPEQYLAKKKGSGLTKKNSTAKLAVVDHVGGVEIESIATKPADVGPEITTILNLTADQFKKIILLPQNDFSEFLKSKTTDKEKILKKIFGTQLYSDFTAELKAEYQTASKTGDQFVADLRVALASATWNDEEQAQLQAVPDNQKIPLLRAFVTTRQSAFDQAQQT | not soluble |
| MKQGLQLRLSQQLAMTPQLQQAIRLLQLSTLELQQELQQALENNPLLEQTDLHDEIDTQQPQDNDPLDTADALEQKEMPEELPLDASWDEIYTAGTPSGPSGDYIDDELPVYQGETTQSLQDYLMWQVELTPFSDTDRAIATSIVDAVDDTGYLTVSLDEIRESMGDVEVDLDEVEAVLKRIQRFDPVGVAAKDLRDCLLIQLSQFDKSTPWLEEARLIICDHLDLLANHDFRTLMRVTRLKEEVLKEAVNLIQSLDPRPGQSIQTGEPEYVIPDVLVRKHNGRWTVELNSDSIPRLQINQHYAAMCNSARNDADSQFIRSNLQDAKWLIKSLESRNDTLLRVSRCIVEQQQAFFEQGEEYMKPMVLADIAQAVEMHESTISRVTTQKYLHSPRGIFELKYFFSSHVNTEGGGEASSTAIRALVKKLIAAENPAKPLSDSKLTSLLSEQGIMVARRTVAKYRESLSIPPSNQRKQLV | not soluble |
| MKQRDSLDEKRRQLTYFTSCNAGTCQCRGFRPVLNHEDETVERRATRAERENDFAPMTRDLETLGSEEIIECRTCGHSISFHAEPLKYLSQEDLDTYTDQISDLQTCCSELSEIDPSHESLQTLYITMQILLKSLRTLTPVDVPFIGKPNFEPESLSPYILVKKFIASRPVDNAEKQRLAEIGTLFLTEMNHWKLEGFQSLADKLNVPLEQGKYRMMYVRMDYYVNMPAKYVSFKQFQTVDIFGEKFTTTFCNYLINVLNTGNYTPFGLSESDLEENSEDLITFATDLRRYLETEDPQSTSTTNRRKDSISTEDVILKYVKRKKPTDHSESSSPRELSTSPVEEPRRRKKEPSSSAKKSPETEESMALLRSLIRAIKFEGDLDAMEPKTKVEFEALNTEVSRGLSALQEEESGLIEFRVIGNDLDPFQHHEQLVHLVELQNLFGAQLPKMPKEYVTRLIFDSRHQNMVILKRDMGVIGGICFRTFPSRGFVEIVFCAITAMEQVKGYGTHLMNHCKDYMIKNKIYHMLTYADEFAIGYFTKQGFSEKLEINDTVYQGWIKEYEGATLMGCHLHPQISYTKFPDFSKGIQALHCGYKSENGAESRGKVFGGLEHLFRESSPQLLELRKVPGTDSLKMHKKSCYHLDERDDSLDSKIGAILKKLTADKNAWPFASPVDVKEVPEYYDHIKHPIDFKTMQEKLKRKAYTHQHLFIADLNRLFQNCYVFNGAEAVYYKYGYKLNELALKLLKTSFPESSWYPELPEQKPLC | not soluble |
| MKQSIRHNKIIELVNQLGYVSTEELVAQLAVSSQTIRRDLNELAEKNLLRRHHGGAGMPSNNENSDYSERKKFFSAQKNIIAQQVAEMIPNGSSLFLDIGTTSEAVAYALLSHQHLRIVTNNLNAAHILMQKDDFQITIAGGDLRADGGIIGEATVNFISEFRLDFGILGISAIDQDGSMLDYDYHEVQVKRALMQSSRQVILVTDHSKFNRRAIVRLGNISEVNYLFTDLPLPLELQQYLAPTNVTVYICNNLEHHHHHH | soluble |
